Measured values as given in patent US20230348564A1, “ANTI-CANCER PROTEINS” (UNICHEM LABORATORIES LTD, priority 2020, published 2023).

Columns and labels:
KB = test: cell based in vitro cytotoxicity/anti-proliferation assay (summary); set-up: species or system Human; details: Cervical
Method: The percentage cytotoxicity was calculated using the statistical tool.

MDA-MB-231 = test: Cell cycle analysis (PI stain); assay type: cell-based, Human; details: 24 h
Method: (§1) The cell lines were maintained in DMEM+10% FBS (heat inactivated) at 37° C. with 5% CO2, and 95% humidity. Antibiotics Penicillin (100 U/mL) and Streptomycin (100 μg/mL) were added to the medium.
(§2) The stock solution of recombinant lectin having the amino acid sequence of SEQ ID NO. […] Doxorubicin was used as positive control and stock solution was prepared in DMSO.
(§3) Cells were counted using hemocytometer and plated in culture plates at density of 0.5×10^6 cells/well in DMEM+10% FBS in 6-well plates. Cells were incubated overnight to allow the cell recovery and exponential growth. Following overnight incubation, cells were sera starved in DMEM+1% FBS for 4 h. […] Untreated cells were included as Control group for test item. Cells treated with Doxorubicin were included as Positive Control group. DMSO treated cells were included as control group for Doxorubicin. After treatment, cells were incubated for a time period of 24 h. Following incubation, the pro-apoptotic effect by cell cycle was determined as follows: Cell cycle reagent contains PI stain, which stains DNA of cells in different phases of cell cycle; Sub(G0/G1), G1, S, G2 and M. Cells in Sub(G0/G1) phase correspond to apoptotic cells.
(§4) Cells were gently harvested into pre-labeled centrifuge tubes and centrifuged at 450 g for 5 min, RT (low brake). The supernatants were removed carefully (not to touch the pellet) and discarded. 1 mL of 1×PBS was added to the pellet and resuspended gently to make homogenous suspension. Cells were centrifuged at 450 g for 5 min, RT (low brake) (washing step). The supernatant was carefully removed leaving behind approx 100 μL of PBS. Cells were resuspended gently yet thoroughly in residual PBS. Ice-cold 70% ethanol (300 μLI) was added drop-wise into cells in each tube while vortexing at low speed (fixation step). Cells were stored at 4° C. for 24 h prior to staining.
(§5) Ethanol fixed cells were centrifuged at 450 g for 5 min, RT (low brake). The supernatant was carefully removed (not to touch the pellet) and discarded. (The pellet might not be visible but makes a thin film on surface of tube). 1 mL of 1×PBS was added into pellet and resuspended gently. Cells were incubated for 1 min at RT. Cells were centrifuged at 450 g for 5 min, RT (low brake) (washing step). The supernatant was removed carefully leaving behind approx 20 μL-50 μL of PBS. 200 μL of Cell Cycle reagent was added into each tube.
(§6) Cells were resuspended gently, mixed and were incubated for 30 min, RT, Dark. The stained samples were transferred into 96-well plates and acquired on flow cytometer (Guava technologies). Percentage of cells in Sub (G0/G1) phase were determined. Fold increase in apoptotic cells (treated with Test Items) was determined as compared to Control (untreated cells).

PANC-1 = test: Cell cycle analysis (PI stain); assay type: cell-based, Human; details: 24 h
Method: as §1, §2, §3, §4, §5, §6

Glioma (C6) = test: cytotoxicity in Brain Tumor Cell lines by MTT assay; assay type: cell-based, Rat; details: 72 h
Method: The SEQ ID NO. […] Untreated cells were used as control. […] Cells were incubated for 3 h at 37° C.

Notch-1 = test: biomarker levels in IOMM-Lee by ELISA; assay type: cell-based, Human; details: 1 μg/mL-80 μg/mL, 48 h
Text: Effect of SEQ ID No 2 on the expression of following 7 biomarkers were estimated in Human Meningioma cell line (IOMM-Lee) using multiplex analysis: TNF-alpha, VEGF, VEGFR2, HGF, HGFR/c-MET, PDGF-BB, and Contactin-1. Levels of another marker, Notch-1 were also estimated by ELISA in the same cell line. These 8 biomarkers play very crucial role in the pathogenesis and progression of Brain Tumor. […] Supernatants were collected and the levels of these 8 markers were investigated.

B1: SEQ ID NO. 2: recombinant lectin; variant of the S. rolfsii lectin amino acid sequence (reported as Rec-2 in WO 2010/095143) (protein)
chain: TYKITVRVYQTNPDAFFHPVEKTVWKYANGGTWTITDDQHVLTMGGSGTSGTLRFHADNGESFTATFGVHNYKRWCDIVTNLAADETGMVINQQYYSQKNREEARERQLSNYQVKNAKGRNFQIVYTEAEGNDLHANLIIG
modifications: In vitro synthesis
% Cytotoxicity (KB): 64.0%
% Population of cells, Apoptotic Sub(G0/G1) (MDA-MB-231; 2.5 μg/mL): 10.05%
% Population of cells, G0/G1 (MDA-MB-231; 2.5 μg/mL): 65.21%
% Population of cells, G2/M (MDA-MB-231; 2.5 μg/mL): 12.97%
% Population of cells, S (MDA-MB-231; 2.5 μg/mL): 6.10%
Fold Increase (wrt Control) Apoptotic Sub(G0/G1) (MDA-MB-231; 2.5 μg/mL): 4.1 fold
% Population of cells, Apoptotic Sub(G0/G1) (MDA-MB-231; 5 μg/mL): 5.75%
% Population of cells, G0/G1 (MDA-MB-231; 5 μg/mL): 61.99%
% Population of cells, G2/M (MDA-MB-231; 5 μg/mL): 15.40%
% Population of cells, S (MDA-MB-231; 5 μg/mL): 8.15%
Fold Increase (wrt Control) Apoptotic Sub(G0/G1) (MDA-MB-231; 5 μg/mL): 2.3 fold
% Population of cells, Apoptotic Sub(G0/G1) (MDA-MB-231; 10 μg/mL): 6.65%
% Population of cells, G0/G1 (MDA-MB-231; 10 μg/mL): 60.71%
% Population of cells, G2/M (MDA-MB-231; 10 μg/mL): 15.50%
% Population of cells, S (MDA-MB-231; 10 μg/mL): 7.36%
Fold Increase (wrt Control) Apoptotic Sub(G0/G1) (MDA-MB-231; 10 μg/mL): 2.7 fold
% Population of cells, Apoptotic Sub(G0/G1) (MDA-MB-231; 20 μg/mL): 15.43%
% Population of cells, G0/G1 (MDA-MB-231; 20 μg/mL): 55.66%
% Population of cells, G2/M (MDA-MB-231; 20 μg/mL): 13.35%
% Population of cells, S (MDA-MB-231; 20 μg/mL): 6.55%
Fold Increase (wrt Control) Apoptotic Sub(G0/G1) (MDA-MB-231; 20 μg/mL): 6.3 fold
% Population of cells, Apoptotic Sub(G0/G1) (MDA-MB-231; 80 μg/mL): 35.62%
% Population of cells, G0/G1 (MDA-MB-231; 80 μg/mL): 42.49%
% Population of cells, G2/M (MDA-MB-231; 80 μg/mL): 10.14%
% Population of cells, S (MDA-MB-231; 80 μg/mL): 8.09%
Fold Increase (wrt Control) Apoptotic Sub(G0/G1) (MDA-MB-231; 80 μg/mL): 14.5 fold
% Population of cells, Apoptotic Sub(G0/G1) (PANC-1; 2.5 μg/mL): 1.60%
% Population of cells, G0/G1 (PANC-1; 2.5 μg/mL): 38.89%
% Population of cells, G2/M (PANC-1; 2.5 μg/mL): 24.83%
% Population of cells, S (PANC-1; 2.5 μg/mL): 9.89%
% Population of cells, Apoptotic Sub(G0/G1) (PANC-1; 5 μg/mL): 2.54%
% Population of cells, G0/G1 (PANC-1; 5 μg/mL): 40.09%
% Population of cells, G2/M (PANC-1; 5 μg/mL): 23.83%
% Population of cells, S (PANC-1; 5 μg/mL): 10.31%
Fold Increase (wrt Control) Apoptotic Sub(G0/G1) (PANC-1; 5 μg/mL): 1.4 fold
% Population of cells, Apoptotic Sub(G0/G1) (PANC-1; 10 μg/mL): 4.23%
% Population of cells, G0/G1 (PANC-1; 10 μg/mL): 44.43%
% Population of cells, G2/M (PANC-1; 10 μg/mL): 23.92%
% Population of cells, S (PANC-1; 10 μg/mL): 10.15%
Fold Increase (wrt Control) Apoptotic Sub(G0/G1) (PANC-1; 10 μg/mL): 2.4 fold
% Population of cells, Apoptotic Sub(G0/G1) (PANC-1; 20 μg/mL): 3.92%
% Population of cells, G0/G1 (PANC-1; 20 μg/mL): 44.24%
% Population of cells, G2/M (PANC-1; 20 μg/mL): 23.79%
% Population of cells, S (PANC-1; 20 μg/mL): 10.83%
Fold Increase (wrt Control) Apoptotic Sub(G0/G1) (PANC-1; 20 μg/mL): 2.2 fold
% Population of cells, Apoptotic Sub(G0/G1) (PANC-1; 80 μg/mL): 6.21%
% Population of cells, G0/G1 (PANC-1; 80 μg/mL): 39.63%
% Population of cells, G2/M (PANC-1; 80 μg/mL): 27.41%
% Population of cells, S (PANC-1; 80 μg/mL): 9.58%
Fold Increase (wrt Control) Apoptotic Sub(G0/G1) (PANC-1; 80 μg/mL): 3.5 fold
% of cytotoxicity (Glioma (C6); 2.5 μg/mL-100 μg/mL): 18.8-48.3%
IC50 Value (Glioma (C6)): >100 µg/mL
Percentage inhibition on levels of Notch-1 (Notch-1): 81.2%-99.8%
% Cytotoxicity (MIAPaCa-2): 47.5%
